# Data as given in the Human Domainome abundance scans (Beltran et al. 2025).
# ± gives the uncertainty stated by the source.
# B1: Chromodomain-helicase-DNA-binding protein 4, residues 444 to 496; numbered along this chain, Q14839 (parent)
# chain: EDDHHMEFCRVCKDGGELLCCDTCPSSYHIHCLNPPLPEIPNGEWLCPRCTCP
# B2: Intersectin-1, residues 909 to 971; numbered along this chain, Q15811 (parent)
# chain: QGEKVEGLQAQALYPWRAKKDNHLNFNKNDVITVLEQQDMWWFGEVQGQKGWFPKSYVKLISG
# Variants of: B1
# Test: abundance fitness (aPCA) (normalised: wild type 0, dead -1); higher = more abundant; growth selection in yeast, the domain comes from the species named
# Details: Homo sapiens
row,Variant,abundance fitness
1,F8P,-0.388 ± 0.045
2,F8T,-0.091 ± 0.055
3,F8D,-0.166 ± 0.06
4,F8E,0.138 ± 0.082
5,F8R,-0.033 ± 0.047
6,D3A,-0.211 ± 0.045
7,D3C,0.27 ± 0.068
8,D3S,0.105 ± 0.049
9,D3Y,0.319 ± 0.069
10,D3E,-0.187 ± 0.057
11,D3L,0.342 ± 0.046
12,D3I,0.393 ± 0.069
13,D3G,-0.292 ± 0.057
14,D3P,-0.174 ± 0.064
15,D3W,0.201 ± 0.045
16,D3V,-0.174 ± 0.05
17,D3T,0.277 ± 0.05
18,D3H,0.1 ± 0.075
19,D3Q,0.221 ± 0.062
20,D3M,0.397 ± 0.065
21,D3R,0.06 ± 0.038
22,D3K,0.304 ± 0.073

row,Variant,abundance fitness
1,C12R,-0.931 ± 0.045
2,C12I,-0.73 ± 0.048
3,C12Y,-0.557 ± 0.089
4,C12P,-1.12 ± 0.052
5,C12S,-0.971 ± 0.058
6,C12E,-0.124 ± 0.1
7,C12T,-0.769 ± 0.045
8,C12W,-0.822 ± 0.051
9,C12F,-0.896 ± 0.084
10,C12V,-0.7 ± 0.063
11,C12A,-0.74 ± 0.06
12,C12M,-1.19 ± 0.074
13,C12H,-0.83 ± 0.074
14,C12L,-1.11 ± 0.06
15,C12D,-0.749 ± 0.1
16,C12Q,-0.928 ± 0.092
17,C12N,-0.663 ± 0.051
18,C12K,-0.607 ± 0.07
19,C12G,-0.53 ± 0.046
20,R10D,-0.142 ± 0.087
21,R10E,-0.07 ± 0.09
22,R10C,0.003 ± 0.077

row,Variant,abundance fitness
1,R10V,-0.056 ± 0.058
2,R10W,0.122 ± 0.088
3,R10I,-0.014 ± 0.056
4,R10H,-0.137 ± 0.051
5,R10A,-0.17 ± 0.042
6,R10G,-0.349 ± 0.062
7,R10L,-0.021 ± 0.043
8,R10Q,0.086 ± 0.066
9,R10K,0.124 ± 0.045
10,R10M,-0.301 ± 0.074
11,R10P,-0.274 ± 0.049
12,R10F,0.059 ± 0.043
13,R10N,0.003 ± 0.044
14,R10T,0.028 ± 0.061
15,R10Y,-0.009 ± 0.064
16,C9H,-0.79 ± 0.064
17,C9T,-0.815 ± 0.061
18,C9Y,-0.979 ± 0.13
19,C9Q,-0.668 ± 0.07
20,C9I,-0.827 ± 0.083
21,C9P,-0.797 ± 0.052
22,C9M,-0.98 ± 0.1

row,Variant,abundance fitness
1,C9S,-0.849 ± 0.068
2,C9R,-0.571 ± 0.066
3,C9E,-0.483 ± 0.1
4,C9A,-0.777 ± 0.11
5,C9W,-0.844 ± 0.15
6,C9K,-0.54 ± 0.051
7,C9V,-0.988 ± 0.11
8,C9D,-0.601 ± 0.11
9,C9G,-0.535 ± 0.094
10,C9N,-0.689 ± 0.054
11,D14N,-0.205 ± 0.062
12,D14V,-0.089 ± 0.053
13,D14Q,0.209 ± 0.047
14,D14E,0.223 ± 0.076
15,D14L,0.023 ± 0.04
16,D14F,-0.34 ± 0.061
17,D14H,-0.18 ± 0.059
18,D14K,0.074 ± 0.063
19,D14R,-0.057 ± 0.052
20,D14Y,-0.412 ± 0.07
21,D14W,-0.418 ± 0.063
22,D14P,-1.02 ± 0.094

row,Variant,abundance fitness
1,D14G,0.152 ± 0.073
2,D14T,-0.1 ± 0.047
3,D14M,-0.139 ± 0.054
4,D14A,-0.068 ± 0.075
5,D14I,-0.196 ± 0.055
6,D14S,0.018 ± 0.047
7,E1I,-0.265 ± 0.35
8,E1P,-0.436 ± 0.22
9,E1Q,-0.486 ± 0.16
10,E1M,0.156 ± 0.28
11,E1N,0.354 ± 0.27
12,E1D,-0.693 ± 0.1
13,E1A,-0.531 ± 0.13
14,E1T,-0.221 ± 0.19
15,E1Y,-0.175 ± 0.1
16,E1V,-0.059 ± 0.054
17,E1L,-0.235 ± 0.078
18,E1W,-0.898 ± 0.43
19,E1F,-0.306 ± 0.38
20,E1G,-0.289 ± 0.046
21,E1R,-0.625 ± 0.28
22,E1S,-0.507 ± 0.18

# Variants of: B2
# Test: as above
# Details: Homo sapiens
row,Variant,abundance fitness
1,QGEKVEGLQAQALYPWRAKKDNHLNFNKNDVITVLEQQDMWWFGEVQGQKGWFPKSYVKLISL [G63L],-0.077 ± 0.32
2,QGEKVEGLQAQALYPWRAKKDNHLNFNKNDVITVLEQQDMWWFGEVQGQKGWFPKSYVKLIST [G63T],0.032 ± 0.15
3,QGEKVEGLQAQALYPWRAKKDNHLNFNKNDVITVLEQQDMWWFGEVQGQKGWFPKSYVKLISD [G63D],0.07 ± 0.14
4,QGEKVEGLQAQALYPWRAKKDNHLNFNKNDVITVLEQQDMWWFGEVQGQKGWFPKSYVKLISA [G63A],-0.058 ± 0.1
5,QGEKVEGLQAQALYPWRAKKDNHLNFNKNDVITVLEQQDMWWFGEVQGQKGWFPKSYVKLISM [G63M],0.011 ± 0.22
6,QGEKVEGLQAQALYPWRAKKDNHLNFNKNDVITVLEQQDMWWFGEVQGQKGWFPKSYVKLISR [G63R],-0.029 ± 0.086
7,QGEKVEGLQAQALYPWRAKKDNHLNFNKNDVITVLEQQDMWWFGEVQGQKGWFPKSYVKLISW [G63W],-0.276 ± 0.15
8,QGEKVEGLQAQALYPWRAKKDNHLNFNKNDVITVLEQQDMWWFGEVQGQKGWFPKSYVKLISC [G63C],0.026 ± 0.12
9,QGEKVEGLQAQALYPWRAKKDNHLNFNKNDVITVLEQQDMWWFGEVQGQKGWFPKSYVKLISP [G63P],-0.01 ± 0.19
10,QGEKVEGLQAQALYPWRAKKDNHLNFNKNDVITVLEQQDMWWFGEVQGQKGWFPKSYVKLISS [G63S],-0.278 ± 0.15
11,QGEKVEGLQAQALYPWRAKKDNHLNFNKNDVITVLEQQDMWWFGEVQGQKGWFPKSYVKLISI [G63I],-0.151 ± 0.35
12,QGEKVEGLQAQALYPWRAKKDNHLNFNKNDVITVLEQQDMWWFGEVQGQKGWFPKSYVKLISQ [G63Q],-0.248 ± 0.38
13,QGEKVEGLQAQALYPWRAKKDNHLNFNKNDVITVLEQQDMWWFGEVQGQKGWFPKSYVKLIRG [S62R],-0.101 ± 0.11
14,QGEKVEGLQAQALYPWRAKKDNHLNFNKNDVITVLEQQDMWWFGEVQGQKGWFPKSYVKLILG [S62L],-0.084 ± 0.16
15,QGEKVEGLQAQALYPWRAKKDNHLNFNKNDVITVLEQQDMWWFGEVQGQKGWFPKSYVKLIKG [S62K],-0.158 ± 0.28
16,QGEKVEGLQAQALYPWRAKKDNHLNFNKNDVITVLEQQDMWWFGEVQGQKGWFPKSYVKLITG [S62T],-0.209 ± 0.19
17,QGEKVEGLQAQALYPWRAKKDNHLNFNKNDVITVLEQQDMWWFGEVQGQKGWFPKSYVKLIIG [S62I],-0.165 ± 0.3
18,QGEKVEGLQAQALYPWRAKKDNHLNFNKNDVITVLEQQDMWWFGEVQGQKGWFPKSYVKLIYG [S62Y],-0.626 ± 0.38
19,QGEKVEGLQAQALYPWRAKKDNHLNFNKNDVITVLEQQDMWWFGEVQGQKGWFPKSYVKLIVG [S62V],-0.253 ± 0.21
20,QGEKVEGLQAQALYPWRAKKDNHLNFNKNDVITVLEQQDMWWFGEVQGQKGWFPKSYVKLIWG [S62W],-0.075 ± 0.35
21,QGEKVEGLQAQALYPWRAKKDNHLNFNKNDVITVLEQQDMWWFGEVQGQKGWFPKSYVKLIQG [S62Q],0.067 ± 0.45
22,QGEKVEGLQAQALYPWRAKKDNHLNFNKNDVITVLEQQDMWWFGEVQGQKGWFPKSYVKLIPG [S62P],-0.21 ± 0.13
23,QGEKVEGLQAQALYPWRAKKDNHLNFNKNDVITVLEQQDMWWFGEVQGQKGWFPKSYVKLING [S62N],-0.151 ± 0.22
